Experimental data: paper PMC4552821
Read-outs that look alike come from different tables or passages of the source.

Tests used:
[1] = target: Kerateine (KTN) extract, in solution (analyte); test: SPR (Reichert SR 7000 refractometer); conditions: 20°C, no added salt, unbuffered
[2] = target: Bone morphogenetic protein 2 (rhBMP-2) (UniProt P12643); test: SPR (Reichert SR 7000 refractometer); conditions: pH 7.4; 20°C; 154 mM NaCl plus 6.7 mM phosphates (PBS); HyClone PBS (154 mM NaCl, 1.06 mM KH2PO4, 5.6 mM Na2HPO4) at pH 7.4. The pH 4.5 solvent is the same PBS acidified with d
[3] = target: kerateine (reduced hair keratin extract) (Homo sapiens) (UniProt Q15323); test: SPR
[4] = target: kerateine (reduced hair keratin extract) (Homo sapiens) (UniProt Q15323); test: SPR; remark: listed apart in the source
[5] = pH 7, deionized water, water (pH 7)
[6] = pH 12, 10 mM NaOH, 10 mM NaOH (pH 12)

Sequence of Bone morphogenetic protein 2 (rhBMP-2) (P12643 whole entry): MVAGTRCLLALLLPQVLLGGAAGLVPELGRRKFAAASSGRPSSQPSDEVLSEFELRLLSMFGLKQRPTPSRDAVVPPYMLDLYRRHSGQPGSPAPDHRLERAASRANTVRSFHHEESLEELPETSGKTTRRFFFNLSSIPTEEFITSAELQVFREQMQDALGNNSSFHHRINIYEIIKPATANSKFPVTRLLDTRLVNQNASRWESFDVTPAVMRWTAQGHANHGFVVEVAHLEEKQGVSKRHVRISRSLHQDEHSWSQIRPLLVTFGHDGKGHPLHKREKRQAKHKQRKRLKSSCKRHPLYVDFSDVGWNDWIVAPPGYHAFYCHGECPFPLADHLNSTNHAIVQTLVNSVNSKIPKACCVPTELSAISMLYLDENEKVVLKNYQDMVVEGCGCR

KD [1, 5] [µM] | t1/2 (half-life of the complex) [1, 5] [min] | ΔG (dissociation energy) [1, 5] [kcal/mol] | KD [1, 6] [µM] | t1/2 (half-life of the complex) [1, 6] [min] | ΔG (dissociation energy) [1, 6] [kcal/mol] | KD [2] [µM] | t1/2 (half-life of the complex) [2] [min] | ΔG (dissociation energy) [2] [kcal/mol] | Kd [3] [µM] | Kd [4] [µM] | Substance
180 | 1.28 | 5.0 | 100 | 1.77 | 5.4 | 32 | 3.73 | 6.0 | – | – | Kerateine (KTN) extract, chemisorbed monolayer on gold
– | – | – | – | – | – | – | – | – | 180 | 100 | kerateine (reduced hair keratin extract), Q15323
